# According to paper PMC8106883:
# Molecular target: angiotensin-converting enzyme 2 (ACE2) on transfected HEK293T cells (human) (UniProt Q9BYF1)
substance,measurement,value
S1-hFc N282Q (Fc fusion),fold binding relative to WT S1-Fc,3 fold
